Test results from paper PMC2408619.

Assays:
[1] = molecular target: His-tagged ectodomain of B. bronchiseptica pertactin (Prn-E; residues 38-640) (B. bronchiseptica) (UniProt Q03035); assay: not stated; unpublished data; stoichiometry of Mtd-P6 with pertactin
[2] = molecular target: Biotinylated Prn-E (pertactin residues 38-640 with N-terminal biotinylation sequence) (B. bronchiseptica) (UniProt Q03035); assay: SPR; Biacore 3000, 25 °C; ~100 RU biotinylated Prn-E on a streptavidin chip; Mtd proteins injected in 150 mM NaCl, 50 mM Tris pH 8.0, 0.005% Tween 20 at 30 μl/min; single-site model, global fit, six concentrations, duplicate
[3] = molecular target: Biotinylated Prn-E (pertactin residues 38-640 with N-terminal biotinylation sequence) (B. bronchiseptica) (UniProt Q03035); assay: SPR; conditions: natural protein
[4] = molecular target: Pertactin (Prn-E) ectodomain (Bordetella bronchiseptica) (UniProt Q03035); assay: ITC; conditions: cited from earlier work
[5] = molecular target: His-tagged ectodomain of B. bronchiseptica pertactin (Prn-E; residues 38-640) (B. bronchiseptica) (UniProt Q03035); assay: pull-down; varying concentrations of Mtd incubated with 80 μM His-tagged Prn-E (5 min, 25 °C) before adding Ni2+-NTA beads; apparent Kd of Mtd-M1 estimated against Mtd-P6 with the Langmuir isotherm

Q: What does the source list for “Bordetella bacteriophage major tropism determinant variant Mtd-P6 (from UniProt Q775D6 1-381) (natural protein)”?
A: stoichiometry N (Mtd-P6 protomers per pertactin) [1]: 3; Kd [2]: 5.19 µM; kon [2]: 10000 M⁻¹ s⁻¹

Q: Which koff [3] does the source give for “Bordetella bacteriophage major tropism determinant variant Mtd-P6 (from UniProt Q775D6 1-381)” here?
A: 0.112 s⁻¹

Q: With Mtd-P1 (from UniProt Q775D6) as the substance, how does the Kd [4] read?
A: 3.04 µM

Q: Which Kd [5] does the source give for “Bordetella bacteriophage major tropism determinant variant Mtd-M1 (from UniProt Q775D6 1-381) (natural protein)” here?
A: 500 µM

Q: And the Kd [2]?
A: > 450 µM
